Measurements from publication PMC5663926, “In vivo near-infrared imaging of ErbB2 expressing breast tumors with dual-axes confocal endomicroscopy using a targeted peptide” (Scientific Reports, 2017).
Where two headings read alike, the source gives them in different places. Residues, ends and D or L forms follow the SMILES beside them. *: point of attachment. X1 = CC1(C)C(/C=C/C2=C(Oc3ccc(S(=O)(=O)O)cc3)C(=C/C=C3/N(CCCCS(=O)(=O)[O-])c4ccc(S(=O)(=O)O)cc4C3(C)C)/CCC2)=[N+](CCCCCC(=O)NCCN2C(=O)CC(*)C2=O)c2ccc(S(=O)(=O)O)cc21

Assays:
[1] = system: BT474 and MDA-MB-231 human xenograft breast tumors in nude mice; assay: In vivo photoacoustic imaging of peptide uptake in xenograft breast tumors; design: species or system nude mouse
Description: (§1) BT474 cells were diluted in growth factor reduced (GFR) Matrigel Matrix (Corning), and injected into one flank of female nude athymic mice (002019 Foxn1 , Jackson Laboratory) at 4–6 weeks of age with weight between 20–25 grams. A 0.18 mg 17-β-Estradiol pellet (#SE-121, Innovative Research of America) with 60 day release form was placed subcutaneously around the neck 1 day prior to tumor implantation to stimulate tumor growth. ∼1 × 10^7 cells were implanted for each tumor, and 2–3 implantations were performed in each mouse. MDA-MB-231 tumors were generated similarly except without Matrigel Matrix injection and only one implantation was performed in each mouse. Tumor size was monitored by ultrasound and MRI weekly. For all in vivo animal experiments, anesthesia was induced and maintained with inhaled isoflurane mixed with oxygen at a concentration of 2–4% at a flow rate of ~0.5 L/min via a nose cone.
(§2) We used photoacoustic tomography (Nexus128, Endra Inc) to measure peptide uptake by the human xenograft breast tumors. This system provides laser excitation with 7 ns pulses, 25 mJ/pulse, […] repetition rate, and tunable wavelength from 680 nm to 950 nm. The acoustic signal was collected with 128 unfocused (3 mm diameter) ultrasound transducers with 5 MHz center frequency assembled in a hemispherical bowl in a helical pattern. Water was added to the bowl to transmit the acoustic signal. We collected photoacoustic images with 120 views at 60 pulses/view. Each image covered a volume of 25 × 25 × 25 mm^3 with a voxel size of 280 μm^3, and each dataset required ~6–7 min for acquisition.
(§3) For imaging, the animals were placed inside a tray with the tumor positioned inside a water-filled dimple that couples the ultrasound signal. KSP*-IR800 was injected via tail vein at a concentration of 300 μM in a volume of 250 μL. Photoacoustic images were acquired at 0, 1, 2, 3, 6, 12, and 24 hours post-injection using λex = 780 nm excitation. PPS*-IR800 was administered in the same animal 48 hours later for control after the target peptide cleared as defined by T/B ratio returning to ∼1. IRDye800 (fluorophore without peptide) at the same concentration was also administered for control.
(§4) After completion of imaging, 3D images were reconstructed using data acquired from all 128 transducers at each view using a back-projection algorithm to correct for variations in laser intensity from pulse-to-pulse and small changes in temperature that affect the velocity of acoustic waves in water. The reconstructed raw data was analyzed using Osirix 6.5.2 software (Pixmeo) to generate a maximum intensity projection (MIP) image. To calculate the T/B ratio, the mean photoacoustic signal was measured from the tumor (target) using a circular ROI function on 2D MIP images. For background, we used the same ROI as that for the tumor prior to injection of peptide. The adjacent annulus with same area was used measure the background.

[2] = Sprague-Dawley rats; cited from earlier work
Excerpt: We validated specific binding of this peptide labeled with IRDye800CW to ErbB2 using siRNA knockdown and competition with cells in vitro and with immunohistochemistry and immunofluorescence studies on tissue specimens using known monoclonal anti-ErbB2 antibodies. Also, we have previously used peptides labeled with fluorescein isothiocyanate (FITC) in human clinical studies in hollow organs[25],[26]. We used IRDye800CW to image breast can ...

[3] = In vivo photoacoustic imaging of peptide uptake in xenograft breast tumors; design: species or system human xenograft, nude mouse; details: female, nude athymic (002019 Foxn1 <nu>), mouse, in vivo, iv, 75 nmol per mouse, BT474 and MDA-MB-231 tumors, tail vein, 300 μM in 250 μL
Description: as §1, §2, §3, §4

[4] = system: tumor and internal organs of tumor-bearing mouse; assay: Peptide biodistribution ex vivo; format: in vivo; details: n = 5 mice
Excerpt: (§5) High peptide uptake seen from the kidneys is consistent with renal clearance.
Figure 5 Peptide biodistribution. […] Strong signal from kidneys support renal clearance. (C) Quantified fluorescence intensities are shown for tumor and other organs from n = 5 mice. We fit a two-way ANOVA model to log-transformed data with terms for 11 tissues and 5 mice and tested each tissue mean against the mean for tumors. Kidney had 1.7 times more intense signals on average (P = 0.03), while all other tissues had at least 2-fold lower signals than tumor on average (P = 0.008 for lung was the largest P-value).

[5] = Histology (H&E) for acute toxicity; format: in vivo, mouse; details: mice euthanized after imaging; KSP*-IR800 by tail vein
Excerpt: as §5

SMILES | time of peak signal ([1]; IRDye800 without peptide, same concentration, post-injection) [h] | photoacoustic tumor signal of fluorophore alone ([1]; IRDye800 without peptide, same concentration, qualitative) | intravenous dose up to which safety was published [2] | time after injection ([3]; read-out: time to return to baseline levels (T/B ratio)) | time after injection ([3]; λex = 780 nm, read-out: time of peak peptide uptake (T/B ratio)) | time of rapid tumor uptake ([1]; photoacoustic tomography, systemic administration, nude mice (Discussion)) [h] | T/B ratio at ∼24 hours (clearance) ([1]; ∼24 hours post-injection, tail vein, 300 μM in 250 μL) | kidney signal relative to tumor (times more intense) ([4]; 1 hour after injection, two-way ANOVA, P = 0.03) [times] | signal in all other tissues than kidney, fold lower than tumor ([4]; liver, heart, stomach, brain, lung, spleen, small intestine, cecum, colon, 1 hour after injection, largest P = 0.008 (lung)) | fluorescence intensity from tumor compared with other organs ([4]; qualitative) | acute toxicity on histology (H&E) [5]
CC1(C)C(/C=C/C2=C(Oc3ccc(S(=O)(=O)O)cc3)C(=C/C=C3/N(CCCCS(=O)(=O)O)c4ccc(S(=O)(=O)[O-])cc4C3(C)C)/CCC2)=[N+](CCCCCC(=O)O)c2ccc(S(=O)(=O)O)cc21 [IRDye800, reference compound] | 2 | significantly lower signal | up to 20 mg/kg | – | – | – | – | – | – | – | –
CC1(C)C(/C=C/C2=C(Oc3ccc(S(=O)(=O)O)cc3)C(=C/C=C3/N(CCCCS(=O)(=O)[O-])c4ccc(S(=O)(=O)O)cc4C3(C)C)/CCC2)=[N+](CCCCCC(=O)NCCN2C(=O)CC(SC[C@H](NC(=O)[C@H](CO)NC(=O)CNC(=O)CNC(=O)CNC(=O)[C@H](Cc3ccccc3)NC(=O)[C@H](CCCNC(=N)N)NC(=O)[C@@H]3CCCN3C(=O)[C@H](CC(N)=O)NC(=O)[C@@H]3CCCN3C(=O)[C@H](CO)NC(=O)[C@@H](N)CCCCN)C(N)=O)C2=O)c2ccc(S(=O)(=O)O)cc21 (some centres unmarked) [KSP*-IR800] (H-KSPNPRFGGGSC(X1)-NH2) | – | – | – | ~24 | 1 | ~1 | ~1 | 1.7 | at least 2 fold | significantly greater fluorescence intensity from the tumor | no acute toxicity
